In this assay the target is M2 isoenzyme of pyruvate kinase (M2PYK), human, N-terminal His6 tag (human) (UniProt P14618). As to the kind of experiment: SEC; analytical gel chromatography, Superdex 200 PC 3.2/30, 0.1 ml/min; protein diluted from 20 mg/ml to 0.1 mg/ml and incubated up to 12 h (overnight) at room temperature in PBS-CM pH 7.4, without or with 10 mM serine, phenylalanine, alanine or tryptophan; apparent constant, tetramer to monomers.

Chain of M2 isoenzyme of pyruvate kinase (M2PYK), human, N-terminal His6 tag, P14618 1-531 (enzyme; other documents disagree on this pair) (P14618 whole entry): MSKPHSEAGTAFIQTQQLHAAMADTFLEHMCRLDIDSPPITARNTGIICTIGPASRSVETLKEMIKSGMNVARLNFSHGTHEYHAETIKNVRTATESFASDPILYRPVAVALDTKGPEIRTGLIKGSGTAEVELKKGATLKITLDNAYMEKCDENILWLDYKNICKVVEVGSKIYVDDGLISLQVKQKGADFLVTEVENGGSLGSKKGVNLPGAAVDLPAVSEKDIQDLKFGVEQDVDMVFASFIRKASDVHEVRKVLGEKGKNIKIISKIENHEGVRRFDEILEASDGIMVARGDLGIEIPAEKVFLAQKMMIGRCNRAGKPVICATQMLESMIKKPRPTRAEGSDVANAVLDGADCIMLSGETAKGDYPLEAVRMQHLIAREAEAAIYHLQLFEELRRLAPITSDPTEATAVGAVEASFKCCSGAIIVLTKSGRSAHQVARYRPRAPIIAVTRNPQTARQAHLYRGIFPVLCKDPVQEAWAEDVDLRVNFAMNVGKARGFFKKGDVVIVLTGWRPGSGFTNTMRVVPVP

“M2 isoenzyme of pyruvate kinase (M2PYK), human, N-terminal His6 tag, P14618 1-531 (enzyme; other documents disagree on this pair)”: the Kd amounted to 900 nM.

The values above are taken from publication PMC5980995, “An allostatic mechanism for M2 pyruvate kinase as an amino-acid sensor” (Biochemical Journal, 2018).
